The supplement of paper PMC6755084

B1: minF1; a variant is named by its letters at N, in order (parent)
chain: GAGACCGCAACTGAAAAGTTGTTNNNNAANNNNGGNTNNATTTCTGCACGTAGAAGCAAAAGGC

Variants of: B1
Assay: fraction ligated after 30 min (ligated reads / total reads); higher = more ligase activity
Conditions: with F1*subA RNA substrate (template-directed ligation), 42 °C
Protocol: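 Chip-synthesised pool of minF1 ligase ribozyme variants (single and double substitutions, single to quadruple deletions, bulge and P2 designed variants) was transcribed with T7 and reacted as a pool with excess substrate F1*subA for 30 min at 42 C in 50 mM EPPS pH 8.5, 25 mM MgCl2. Ligated and unligated RNAs were separated by PAGE, barcoded by RT and deep sequenced; fraction ligated = ligated reads / total reads, relative activity = FL / FL of wild-type minF1 (0.76); sequencing FL correlated with PAGE (R2 = 0.98). Sequences are the DNA template of the ribozyme.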

Point of comparison: ACAGAGGTTGA, fraction ligated 0.00073. Against it:
- TCGATGGAGTA — higher, 0.00705
- TCGATGGAGTG — higher, 0.0131
- TCAGTGGAGTT T23A G34T T37G A40G — lower, 0.000501
- TCAGTATGTGA T23A — higher, 0.00284
- TCGAGGATTGA T23A — higher, 0.00135
- ACAGTGGGTGA — higher, 0.00475
- TCAGATGGTGA — higher, 0.00356
- ACAGATGTGTA — higher, 0.00227
- ACAGATGTGTG — higher, 0.0127
- ACAGGGATGTA — higher, 0.00263
- ACAGGGATGTG — higher, 0.00506
- TCGATGGGTGA T23A — lower, 0.000539
- TCGAGGATTGA — higher, 0.00327
- TCGAGATGTGA T23A A28T A29G — higher, 0.00546
- TCAGAGGTTGA — higher, 0.00136
- TCGATGATGTA T23A — higher, 0.00263
- TCAGATGGGGT G34A G35T T37G A40T — higher, 0.00121
- TCGATATGTGA T23A — higher, 0.00444
- TCGATGATTGA — higher, 0.00257
- ACAGATGAGTA G34T — higher, 0.00197
- CGAAGGATGTA A29T — higher, 0.00492
- TCAGATGAGTA — higher, 0.0022
- TCAGATGAGTG — higher, 0.00463
- CGAAGGATGTG T23A A29T — higher, 0.0123
- TCAGATGAGTG G34T — higher, 0.00362
- CGAAGGAGTGA T23A A29T — higher, 0.00498
- TGAAGGATGTA A29T — higher, 0.00266
- TCAGATGAGTT T23A G34T T37G — lower, 0.00034
- ACGAGGTGTGA — higher, 0.00342
- TCGAGGAGTGA — higher, 0.00338
- ACGATGGGTGA — higher, 0.00155
- ACGATGGTTGA — higher, 0.00307
- TCAGTGGAGTG T23A G34T — higher, 0.0406
- TCAGATGGGTT G34A T37G A40G — higher, 0.00106
- TCGATGGTTGA — higher, 0.00257
- TCAGATAGTGA T23A — higher, 0.00511
- TCAGATGGGTG G34A — higher, 0.00479
- TCAGATGGGTG G34T — higher, 0.00277
- ACAGATGGGTG G34T — higher, 0.00406
- ACAGATGGGTG G34A — higher, 0.0045
- ACAGTGGATGA — higher, 0.00257
- TCAGGGATTGA T23A — lower, 0.000376
- TCAGTGAGTGA T23A — higher, 0.0046
- ACAGATGGGTT G34T T37G A40G — higher, 0.00113
- AGAAGGATGTA A29T — higher, 0.00434
- ACAGGGATTGA A29T — higher, 0.00506
- TCAGTGGTGTA T23A — higher, 0.00153
- ACGAGGATGTA — higher, 0.00292
- ACGAGGATGTG — higher, 0.00917
- ACGATGATTGA — higher, 0.00224
- TCGATGAGTGA T23A — higher, 0.00204
- TCGAGGAGTGA T23A A29T — higher, 0.00108
- TCAGAGGGTGA T23A — higher, 0.004
- TCAGAGGATGA — higher, 0.00215
- AGAAGATGTGA T23C A29T — higher, 0.00701
- AGAAGATGTGA T23C A29G — higher, 0.00313
- TCGAGGAGTGA A29T — higher, 0.00284
- ACGAGGATGTA A29T — higher, 0.00647
- ACAGAGGAGTT G34T T37G A40G — higher, 0.00205
- TCAGTGGTTGA T23A — higher, 0.00216
- AGAAGGAGTGA A29T — higher, 0.00436
- ACAGTGGAGTT G34T T37G — higher, 0.00159
- ACAGAGTGTGA — higher, 0.00284
- TCGAGATGTGA A29T — higher, 0.00243
- TCGAGATGTGA A29G — higher, 0.00245
- ACAGATAGTGA — higher, 0.00391
- TCGAGGATTGA T23A A29T — higher, 0.00747
- TCGATGAGTGA — higher, 0.00207
- TCAGGGTGTGA T23A — higher, 0.00148
- TCAGATGTGTA — higher, 0.000796
- TCAGATGTGTG — higher, 0.00413
- TCGAGGATGTG — higher, 0.00804
- TCGAGGATGTA — higher, 0.00168
- TCAGTGATGTA — lower, 0.000465
- TCAGTGATGTG — higher, 0.00561
- TCAGGGATTGA T23A A29T — higher, 0.0045
- TCAGTGGAGTA T23A G34T — higher, 0.0212
- TCAGGGTGTGA — higher, 0.00203
- TCAGTGGATGA T23A — higher, 0.00222
- TCGATGGAGTA T23A G34T — higher, 0.139
- TCGAGATGTGA A28T A29G — higher, 0.00721
- TCAGAGGTGTG T23A — higher, 0.00531
